Article PMC3019181 (BMC Microbiology, 2010)

Molecular target: the molecule itself
Test: two-hybrid; yeast; pJZ4-G clones in strain RFY231 mated with pHZ5-NRT clones in strain Y309; beta-galactosidase activity in Miller units (Yeast beta-Galactosidase Assay Kit, Pierce)

B1: Wag31T73EMtb (phosphomimetic Wag31 of Mycobacterium tuberculosis) (natural protein)
chain: MPLTPADVHNVAFSKPPIGKRGYNEDEVDAFLDLVENELTRLIEENSDLRQRINELDQELAAGGGAGVTPQAEQAIPAYEPEPGKPAPAAVSAGMNEEQALKAARVLSLAQDTADRLTNTAKAESDKMLADARANAEQILGEARHTADATVAEARQRADAMLADAQSRSEAQLRQAQEKADALQADAERKHSEIMGTINQQRAVLEGRLEQLRTFEREYRTRLKTYLESQLEELGQRGSAAPVDSNADAGGFDQFNRGKN
notes: also called phosphomimetic Wag31T73EMtb; source: yeast two-hybrid fusion
- fold interaction (beta-galactosidase activity) against wild-type Wag31Mtb with itself: ~2 fold
